Experimental data reported in US20110217291A1.

Experiments:
[1] = target: human IgG1 antibody (Lambda from human myeloma plasma, Sigma-Aldrich) (human); assay: SPR (Biacore 3000), steady state, IgG1 immobilized at 1013 RU, receptor as analyte
[2] = target: IgG of IgG Sepharose 6 Fast Flow resin (GE Healthcare); assay: IgG-Sepharose column, 24 h CHO conditioned media, Western blot
[3] = target: human IgG1 antibody (Lambda from human myeloma plasma, Sigma-Aldrich) (human); assay: SPR (Biacore), IgG1 immobilized at 485 RU, receptor as analyte
[4] = target: IgG of IgG Sepharose 6 Fast Flow resin (GE Healthcare); assay: IgG-Sepharose column, one-day conditioned media of CHO cells at 37° C., Western blot
[5] = target: IgG of IgG Sepharose 6 Fast Flow resin (GE Healthcare); assay: IgG-Sepharose column, purified protein, Western blot
[6] = target: IgG of IgG Sepharose 6 Fast Flow resin (GE Healthcare); assay: batch binding of 293F conditioned media to IgG Sepharose, Western blot quantitation, n=2
[7] = target: human IgG1 antibody (Lambda from human myeloma plasma, Sigma-Aldrich) (human); assay: SPR (Biacore 3000), IgG1 immobilized at 458 RU, receptor as analyte, 1:1 model

Sequence of untagged recombinant soluble human FcγRIA (P12314 16-282): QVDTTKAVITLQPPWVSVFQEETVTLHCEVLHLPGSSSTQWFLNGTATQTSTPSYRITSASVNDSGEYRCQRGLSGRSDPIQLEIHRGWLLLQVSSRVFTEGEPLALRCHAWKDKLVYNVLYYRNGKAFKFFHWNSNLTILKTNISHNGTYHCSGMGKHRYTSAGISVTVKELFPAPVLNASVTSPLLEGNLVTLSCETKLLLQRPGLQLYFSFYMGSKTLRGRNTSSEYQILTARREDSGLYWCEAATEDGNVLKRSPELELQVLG
Sequence of FcγRIA-CH6 (extracellular domain of human FcγRIA with a C-terminal six His tag) (P12314 other isoform, or with tags, fused parts or gaps): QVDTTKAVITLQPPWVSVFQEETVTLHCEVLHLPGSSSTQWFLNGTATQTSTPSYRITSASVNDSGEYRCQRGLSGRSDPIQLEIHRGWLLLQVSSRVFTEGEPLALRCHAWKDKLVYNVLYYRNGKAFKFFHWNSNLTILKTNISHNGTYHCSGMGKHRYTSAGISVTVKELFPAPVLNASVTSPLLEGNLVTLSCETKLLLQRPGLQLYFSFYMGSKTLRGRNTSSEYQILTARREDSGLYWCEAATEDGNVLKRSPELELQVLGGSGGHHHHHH
Sequence of aggregated FcγRIA (purified soluble FcγRIA incubated at 37° C.) (P12314 16-282): as the sequence (P12314 16-282) above
Sequence of FcγRIIIA-CH6 (soluble monomeric human FcγRIIIA extracellular domain with C-terminal His6 tag) (P08637 other isoform, or with tags, fused parts or gaps): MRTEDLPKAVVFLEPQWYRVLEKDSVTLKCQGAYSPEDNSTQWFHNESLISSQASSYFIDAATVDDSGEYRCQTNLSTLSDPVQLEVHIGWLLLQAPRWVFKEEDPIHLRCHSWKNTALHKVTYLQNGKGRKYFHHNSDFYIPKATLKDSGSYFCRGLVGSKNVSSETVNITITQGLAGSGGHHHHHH

FcγRIIIA-CH6 (soluble monomeric human FcγRIIIA extracellular domain with C-terminal His6 tag) (from UniProt P08637 18-195) (receptor)
Kd [1]: 630 nM

untagged recombinant soluble human FcγRIA (from UniProt P12314 16-282) (receptor)
percent of total applied bound to IgG-Sepharose [2]: 14% | percent of total applied in the wash (unbound) [2]: 86% | Kd [3]: 0.17 nM | koff [3]: 0.00046 s⁻¹ | kon [3]: 2.8e+06 M⁻¹ s⁻¹ | percent of recovered protein bound and eluted [4]: 20% | percent of recovered protein in unbound fraction [4]: 80%

aggregated FcγRIA (purified soluble FcγRIA incubated at 37° C.) (from UniProt P12314 16-282) (receptor)
percent of total in bound fraction [5]: 4% | percent of total in unbound wash fraction [5]: 96%

FcγRIA-CH6 (extracellular domain of human FcγRIA with a C-terminal six His tag) (from UniProt P12314 16-282) (receptor)
percent of total expressed in IgG Sepharose flow-through (aggregate amount) [6]: 66% | percent of total expressed recovered from IgG resin [6]: 21% | Kd [3]: 0.17 nM | koff [3]: 0.00046 s⁻¹ | kon [3]: 2.8e+06 M⁻¹ s⁻¹ | Kd [7]: 0.17 nM | koff [7]: 0.00046 s⁻¹ | kon [7]: 2.8e+06 M⁻¹ s⁻¹

FcγRIIA-CH6 (soluble monomeric human FcγRIIA extracellular domain with C-terminal His6 tag) (from UniProt P12318 34-212) (receptor)
Kd [1]: 1900 nM
